B1: GALNT9 (parent)
chain: FTQSGPIVSRATGRCLEVEMSKDA

Variants of: B1
Experiment: protein stability index of a GFP-peptide fusion (GPS, HEK-293T) (PSI 1-6); higher = more stable
Conditions: c terminus: a fixed tail appended
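Note: lentivirally expressed fusions sorted by FACS into six bins by GFP to DsRed ratio, PSI derived from sequencing read proportions per bin multiplied by bin number.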

| Variant | protein stability index |
| --- | --- |
| FTQSGPIVSRATGRCLELEMSKDA | 1.79 |
| FTQSGPIVSRATGRCLEEEMSKDA | 1.01 |
| FTQSGPIVSRATGRCLEFEMSKDA | 2.61 |
| FTQSGPIVSRATGRCLEAEMSKDA | 1.61 |
| FTQSGPIVSRATGRCLEWEMSKDA | 1.74 |
| FTQSGPIVSRATGRCLEPEMSKDA | 2.59 |
| FTQSGPIVSRATGRCLEMEMSKDA | 1.92 |
| FTQSGPIVSRATGRCLEQEMSKDA | 2.31 |
| FTQSGPIVSRATGRCLENEMSKDA | 2.55 |
| FTQSGPIVSRATGRCLEYEMSKDA | 1.94 |
| FTQSGPIVSRATGRCLEIEMSKDA | 2.32 |
| FTQSGPIVSRATGRCLEDEMSKDA | 2.53 |
| FTQSGPIVSRATGRCLEHEMSKDA | 1.81 |
| FTQSGPIVSRATGRCLEREMSKDA | 1.94 |
| FTQSGPIVSRATGRCLETEMSKDA | 2.02 |
| FTQSGPIVSRATGRCLEKEMSKDA | 3.26 |
| FTQSGPIVSRSTGRCLEVEMSKDA | 1.77 |
| FTQSGPIVSRKTGRCLEVEMSKDA | 1.83 |
| FTQSGPIVSRYTGRCLEVEMSKDA | 3.67 |
| FTQSGPIVSRGTGRCLEVEMSKDA | 1.95 |
| FTQSGPIVSRTTGRCLEVEMSKDA | 2.24 |
| FTQSGPIVSRITGRCLEVEMSKDA | 1.67 |
| FTQSGPIVSRFTGRCLEVEMSKDA | 1.06 |
| FTQSGPIVSRDTGRCLEVEMSKDA | 3.15 |

| Variant | protein stability index |
| --- | --- |
| FTQSGPIVSRMTGRCLEVEMSKDA | 1.73 |
| FTQSGPIVSRPTGRCLEVEMSKDA | 2.31 |
| FTQSGPIVSRRTGRCLEVEMSKDA | 1.65 |
| FTQSGPIVSRATFRCLEVEMSKDA | 2.15 |
| FTQSGPIVSRATDRCLEVEMSKDA | 3.13 |
| FTQSGPIVSRATHRCLEVEMSKDA | 1.99 |
| FTQSGPIVSRATYRCLEVEMSKDA | 4.09 |
| FTQSGPIVSRATQRCLEVEMSKDA | 1.55 |
| FTQSGPIVSRATERCLEVEMSKDA | 2.76 |
| FTQSGPIVSRATTRCLEVEMSKDA | 2.16 |
| FTQSGPIVSRATVRCLEVEMSKDA | 1.81 |
| FTQSGPIVSRATARCLEVEMSKDA | 1.86 |
| FTQSGPIVSRATIRCLEVEMSKDA | 1.14 |
| FTQSGPIVSRATKRCLEVEMSKDA | 1.91 |
| FTQSGPIVSRATMRCLEVEMSKDA | 1.45 |
| FTQSGPIVSRATSRCLEVEMSKDA | 1.76 |
| FTQSGPIVSRATRRCLEVEMSKDA | 2.6 |
| FTQSGPIVSRATPRCLEVEMSKDA | 1.81 |
| FTQSGPIVSRATNRCLEVEMSKDA | 2.41 |
| FTQSGPIVSRATGRCLEVEMCKDA | 1.47 |
| FTQSGPIVSRATGRCLEVEMHKDA | 1.76 |
| FTQSGPIVSRATGRCLEVEMFKDA | 1.86 |
| FTQSGPIVSRATGRCLEVEMDKDA | 1.63 |
| FTQSGPIVSRATGRCLEVEMEKDA | 2.71 |

| Variant | protein stability index |
| --- | --- |
| FTQSGPIVSRATGRCLEVEMGKDA | 1.21 |
| FTQSGPIVSRATGRCLEVIMSKDA | 1.71 |
| FTQSGPIVSRATGRCLEVTMSKDA | 1.22 |
| FTQSGPIVSRATGRCLEVYMSKDA | 1.53 |
| FTQSGPIVSRATGRCLEVKMSKDA | 2.33 |
| FTQSGPIVSRATGRCLEVAMSKDA | 2.49 |
| FTQSGPIVSRATGRCLEVFMSKDA | 2.37 |
| FTQSGPIVSRATGRCLEVVMSKDA | 1.45 |
| FTQSGPIVSRATGRCLEVNMSKDA | 1.62 |
| FTQSGPIVSRATGRCLEVGMSKDA | 2.19 |
| FTQSGPIVSRATGRCLEVLMSKDA | 2.39 |
| FTQSGPIVSRATGRCLEVSMSKDA | 1.35 |
| FTQSGPIVSRATGRCLEVHMSKDA | 1.62 |
| FTQSGPIVSRATGRCLEVMMSKDA | 3.89 |
| FTQSGPIVSRATGRCLEVRMSKDA | 3.07 |
| FTQSGPIVSRATGRCLEVPMSKDA | 2.57 |
| FTQSGPIVSRATGRCLEVDMSKDA | 2.02 |
| FTQSGPIVSRATGRCLNVEMSKDA | 3.09 |
| FTQSGPIVSRATGRCLKVEMSKDA | 2.41 |
| FTQSGPIVSRATGRCLVVEMSKDA | 1.24 |
| FTQSGPIVSRATGRCLDVEMSKDA | 1.91 |
| FTQSGPIVSRATGRCLAVEMSKDA | 1.03 |
| FTQSGPIVSRATGRCLSVEMSKDA | 2.15 |
| FTQSGPIVSRATGRCLGVEMSKDA | 2.09 |

| Variant | protein stability index |
| --- | --- |
| FTQSGPIVSRATGRCLRVEMSKDA | 5.49 |
| FTQSGPIVSRATGRCLFVEMSKDA | 3.92 |
| FTQSGPIVSRATGRCLYVEMSKDA | 3.5 |
| FTQSGPIVSRATGRCLPVEMSKDA | 2.05 |
| FTQSGPIVSRATGRCLQVEMSKDA | 2.94 |
| FTQSGPIVSRATGRCLCVEMSKDA | 1.84 |
| FTQSGPIVMRATGRCLEVEMSKDA | 2.28 |
| FTQSGPIVFRATGRCLEVEMSKDA | 2.88 |
| FTQSGPIVDRATGRCLEVEMSKDA | 2.99 |
| FTQSGPIVGRATGRCLEVEMSKDA | 2.76 |
| FTQSGPIVLRATGRCLEVEMSKDA | 2.43 |
| FTQSGPIVERATGRCLEVEMSKDA | 2.2 |
| FTQSGPIVTRATGRCLEVEMSKDA | 1.92 |
| FTQSGPIVHRATGRCLEVEMSKDA | 1.67 |
| FTQSGPIVNRATGRCLEVEMSKDA | 2.06 |
| FTQSGPIVPRATGRCLEVEMSKDA | 2.05 |
| FTQSGPIVSRATGRFLEVEMSKDA | 2.44 |
| FTQSGPIVSRATGRLLEVEMSKDA | 4.19 |
| FTQSGPIVSRATGRQLEVEMSKDA | 3.14 |
| FTQSGPIVSRATGRKLEVEMSKDA | 2.53 |
| FTQSGPIVSRATGRSLEVEMSKDA | 2.7 |
| FTQSGPIVSRATGRVLEVEMSKDA | 3.06 |
| FTQSGPIVSRATGRNLEVEMSKDA | 3.75 |
| FTQSGPIVSRATGRPLEVEMSKDA | 3.11 |

| Variant | protein stability index |
| --- | --- |
| FTQSGPIVSRATGRYLEVEMSKDA | 3.04 |
| FTQSGPIVSRATGRDLEVEMSKDA | 3.9 |
| FTQSGPIVSRATGRRLEVEMSKDA | 3.86 |
| FTQSGPIVSRATGRILEVEMSKDA | 2.7 |
| FTQSGPIVSRATGRTLEVEMSKDA | 2.99 |
| FTQSGPIVSRATGRHLEVEMSKDA | 3.37 |
| FTQSGPIVSRATGRMLEVEMSKDA | 2.78 |
| FTQSGPIVSRAIGRCLEVEMSKDA | 1.89 |
| FTQSGPIVSRADGRCLEVEMSKDA | 2.38 |
| FTQSGPIVSRAYGRCLEVEMSKDA | 2.47 |
| FTQSGPIVSRAEGRCLEVEMSKDA | 3.19 |
| FTQSGPIVSRAAGRCLEVEMSKDA | 3.14 |
| FTQSGPIVSRAHGRCLEVEMSKDA | 1.58 |
| FTQSGPIVSRAKGRCLEVEMSKDA | 2.15 |
| FTQSGPIVSRAMGRCLEVEMSKDA | 1.48 |
| FTQSGPIVSRALGRCLEVEMSKDA | 1.64 |
| FTQSGPIVSRARGRCLEVEMSKDA | 2.04 |
| FTQSGPIVSRANGRCLEVEMSKDA | 2.4 |
| FTQSGPIVSRASGRCLEVEMSKDA | 1.78 |
| FTQSGPIVSRAQGRCLEVEMSKDA | 1.56 |
| FTQSGPIVSRAPGRCLEVEMSKDA | 2.05 |
| FTQSGPIVSRAVGRCLEVEMSKDA | 1.51 |
| FTQSGPIVSRATGRCAEVEMSKDA | 1.96 |
| FTQSGPIVSRATGRCNEVEMSKDA | 3.04 |

| Variant | protein stability index |
| --- | --- |
| FTQSGPIVSRATGRCCEVEMSKDA | 2.08 |
| FTQSGPIVSRATGRCFEVEMSKDA | 2.37 |
| FTQSGPIVSRATGRCTEVEMSKDA | 3.25 |
| FTQSGPIVSRATGRCKEVEMSKDA | 2.27 |
| FTQSGPIVSRATGRCEEVEMSKDA | 3.65 |
| FTQSGPIVSRATGRCIEVEMSKDA | 1.4 |
| FTQSGPIVSRATGRCHEVEMSKDA | 2.81 |
| FTQSGPIVSRATGRCSEVEMSKDA | 1.75 |
| FTQSGPIVSRATGRCQEVEMSKDA | 2.81 |
| FTQSGPIVSRATGRCVEVEMSKDA | 2.33 |
| FTQSGPIVSRATGRCMEVEMSKDA | 2.29 |
| FTQSGPIVSRATGRCWEVEMSKDA | 2.35 |
| FTQSGPIVSRATGRCGEVEMSKDA | 2.52 |
| FTQSGPIVSRATGRCYEVEMSKDA | 1.99 |
| FTQSGPIVSRATGRCDEVEMSKDA | 3.53 |
| FTQSGPIVSRATGRCPEVEMSKDA | 3.02 |
| FTQSGPIVSRATGRCREVEMSKDA | 3.09 |
| FTQSGPIVSSATGRCLEVEMSKDA | 3.5 |
| FTQSGPIVSVATGRCLEVEMSKDA | 2.6 |
| FTQSGPIVSCATGRCLEVEMSKDA | 2.33 |
| FTQSGPIVSNATGRCLEVEMSKDA | 2.01 |
| FTQSGPIVSAATGRCLEVEMSKDA | 2.41 |
| FTQSGPIVSLATGRCLEVEMSKDA | 2.77 |
| FTQSGPIVSDATGRCLEVEMSKDA | 3.87 |

| Variant | protein stability index |
| --- | --- |
| FTQSGPIVSTATGRCLEVEMSKDA | 2.5 |
| FTQSGPIVSGATGRCLEVEMSKDA | 2.89 |
| FTQSGPIVSYATGRCLEVEMSKDA | 2.44 |
| FTQSGPIVSQATGRCLEVEMSKDA | 3.02 |
| FTQSGPIVSKATGRCLEVEMSKDA | 2.65 |
| FTQSGPIVSMATGRCLEVEMSKDA | 1.48 |
| FTQSGPIVSEATGRCLEVEMSKDA | 3.91 |
| FTQSGPIVSPATGRCLEVEMSKDA | 2.49 |
| FTQSGPIVSHATGRCLEVEMSKDA | 2.37 |
| FTQSGPIVSIATGRCLEVEMSKDA | 1.53 |
| FTQSGPIVSFATGRCLEVEMSKDA | 1.41 |
| FTQSGPIVSRATGRCLEVECSKDA | 1.89 |
| FTQSGPIVSRATGRCLEVEWSKDA | 1.55 |
| FTQSGPIVSRATGRCLEVEASKDA | 3.61 |
| FTQSGPIVSRATGRCLEVETSKDA | 3.24 |
| FTQSGPIVSRATGRCLEVEQSKDA | 3.23 |
| FTQSGPIVSRATGRCLEVELSKDA | 3.75 |
| FTQSGPIVSRATGRCLEVENSKDA | 3.34 |
| FTQSGPIVSRATGRCLEVEHSKDA | 2.65 |
| FTQSGPIVSRATGRCLEVEGSKDA | 3.21 |
| FTQSGPIVSRATGRCLEVERSKDA | 2.73 |
| FTQSGPIVSRATGRCLEVESSKDA | 3.05 |
| FTQSGPIVSRATGRCLEVEYSKDA | 2.46 |
| FTQSGPIVSRATGRCLEVEKSKDA | 2.32 |

| Variant | protein stability index |
| --- | --- |
| FTQSGPIVSRATGRCLEVEVSKDA | 2.18 |
| FTQSGPIVSRATGRCLEVEPSKDA | 3.38 |
| FTQSGPIVSRATGRCLEVEDSKDA | 4.53 |
| FTQSGPIVSRATGRCLEVEFSKDA | 1.93 |
| FTQSGPIVSRATGRCLEVEISKDA | 2.28 |
| FTQSGPIVSRATGRCLEVEESKDA | 3.66 |
| FTQSGPIVSRATGPCLEVEMSKDA | 3.1 |
| FTQSGPIVSRATGFCLEVEMSKDA | 1.61 |
| FTQSGPIVSRATGYCLEVEMSKDA | 1.82 |
| FTQSGPIVSRATGVCLEVEMSKDA | 1.71 |
| FTQSGPIVSRATGNCLEVEMSKDA | 2.88 |
| FTQSGPIVSRATGICLEVEMSKDA | 2.78 |
| FTQSGPIVSRATGACLEVEMSKDA | 2.84 |
| FTQSGPIVSRATGKCLEVEMSKDA | 1.95 |
| FTQSGPIVSRATGECLEVEMSKDA | 3.03 |
| FTQSGPIVSRATGTCLEVEMSKDA | 1.99 |
| FTQSGPIVSRATGHCLEVEMSKDA | 2.06 |
| FTQSGPIVSRATGSCLEVEMSKDA | 1.98 |
| FTQSGPIVSRATGLCLEVEMSKDA | 1.9 |
| FTQSGPIVSRATGCCLEVEMSKDA | 1.78 |

Source: the supplement of paper PMC10567573
